Assay results published in paper PMC2192027.

Legend:
[1] = target: CLIMP-63 luminal fragment 268–459 (UniProt Q07065); assay: AUC
[2] = target: recombinant full-length luminal segment of CLIMP-63 (amino acids 127–601) (UniProt Q07065); assay: AUC

| stoichiometry N [1] | percent sedimenting at 26 S (1.5 M urea) [2] | percent sedimenting at 26 S (2 M urea) [2] | percent sedimenting at 26 S (2.5 M urea) [2] | Substance |
| --- | --- | --- | --- | --- |
| 2 | – | – | – | CLIMP-63 luminal fragment 268–459 (from UniProt Q07065 268-459) (domain or fragment) |
| – | 80% | 50% | 20% | recombinant full-length luminal segment of CLIMP-63 (amino acids 127–601) (from UniProt Q07065 127-601) (domain or fragment) |
